# Results: the DeepSol protein solubility set
# Test: soluble on expression in E. coli; label from the status in PepcDB or PDB records
row,Sequence,soluble on expression in E. coli
1,SLLDVAVSPDDRFILTADRDEKIRVSWAAAPHSIESFCLGHTEFVSRISVVPTQPGLLLSSSGDGTLRLWEYRSGRQLHCCHLASLQELVDPQAPQKFAASRIAFWCQENCVALLCDGTSVVYIFQLDARRQQLVYRQQLAFQHQVWDVAFEETQGLWVLQDCQEAPLVLYRPVGDQWQSVPESTVLKKVSGVLRGNWAMLEGSAGADASFSSLYKATFDNVTSYLKKKEERLQQQLEKKQRRRSPPPGPDGHAKKMRPGEATLSC,soluble
2,SLMVLAMESRVAPEIPGLIQPGNVTQDLKMMVCKLLNSPKPTKTFPGSQPVSFQHSDVEEKLLAHDYYVCEKTDGLRVLMFIVINPVTGEQGCFMIDRENNYYLVNGFRFPRLPQKKKEELLETLQDGTLLDGELVIQTNPMTKLQELRYLMFDCLAINGRCLTQSPTSSRLAHLGKEFFKPYFDLRAAYPNRCTTFPFKISMKHMDFSYQLVKVAKSLDKLPHLSDGLIFTPVKAPYTAGGKDSLLLKWKPEQENTVDFKLILDIPMVEDPSLPKDDRNRWYYNYDVKPVFSLYVWQGGADVNSRLKHFDQPFDRKEFEILERTYRKFAELSVSDEEWQNLKNLEQPLNGRIVECAKNQETGAWEMLRFRDDKLNGNHTSVVQKVLESINDSVSLEDLEEIVGDIKRCWDERRANMAGGSGRPLPSQSQNATLSTSKPVHSQPPSNDKEPKYVDEDDWSD,soluble
3,SLNTPFSIDEVSFRDLPGWGQDDPRKLFPAMATILSHLRNAKPYRTGALGITAAELVSLLELAERGQVNSPEQARQFFETNSVPFRISPAQGKSGFVTAFYEPELEVSATPDDVWRYPIYRRPPELVDIDNDNRPDGFDPSYAFGKADEEGISYFPDRRAIDEGCLRGRGLEIAWARSKVDLFFVHVQGAARLVFPDGAIKRITYAAKAGHVFSPIGRLLLDRGELDPKTISMQTIRQWLADHPDEVDGVLWHNRSYIFFREADVAGLDMGPIAAAKVPLVAGRALAVDRLIHTFGLPFFIHAPTLTHLDDGKPFARLMLALDTGSAIVGPARGDIFTGSGFEAGELAGTVRNEADFYILLPRIAAERYRR,not soluble
4,SLQETTAQEQKVGNYALGPEGLKKALAETGSHILVMDLYAKTMIKQPNVNLSNINLGSEGGELLKNIHLNQELSRINANYWLDTAKPQIQKTARNIVNYDEQFQNYYDTLVETVQKKDKAGLKEGINDLITTINTNSKEVTDVIKMLQDFKGKLYQNSTDFKNNVGGPDGKGGLTAILAGQQATIPQLQAEIEQLRATQKKHFDDVLAWSIG,soluble
5,SLRIEHFETISCDAGWRNYYFLKVVTSDGIVGWSEYDESFGPPGLTAVIEQLGARLVGKSVYDHEEAYGRLAASLRPAPYGLSAEAIGAIENALLDAKAKSLGLPVYQLLGGKHRGSIPIYWSHCATWRISHPNLYPPAIVDLDGVKKAGEDARKSGISALKTNLFINENGKPRQWMAGFGSPYAPSLNVDKALLRNLRAHLEALRDGAGPDVDILVDLNFNARTEGYLSLINAIKDFDLFWVELDIYNPDAMAYIRQRSHAPIAACETLFGIRQFLPYFQAQSMDVAIVDAVWNGVWQAMKIASVADAFDVNIAPHNFYSHLSTMMNVHFAAAVPNLRVMEVDVDRLAWDDQLFTRTPEIVNGAIQVPDAPGWGCDPIEEALRAHPPQVRRSHLGL,soluble
6,SLRVMLPNKKALEIIRKYMKIYNGKNEKDIKERLIKELKEEHVLVETEDGTYTLKAEDEEEMMHSKVGALKEAIYKFAKPSKITDLSNPRVLDLCSGMGYNAIAALHYNKNAEIDMVEICEEVLFLTLFLDIPYKEHEIIKDKVREYFLNKIGIEYKSDYDNINLYVGDARKFIIKSDKKYNVVFHDAFSPKRDPTLYTYDFLKEIYKRMEDNGVLISYSSAIPFRSALVDCGFVISEKESVGRKRGITLAYKNPNFKPNRINEVDERVIALSVIALPYRDETLSLTKDKIIEDREERREKLKEKLIKIGKYLSTKQIKKGNIPEEILKIQKEDLNSSEIIKKMRLKFFKDANIFIL,soluble
7,SLRVSASMSLVVLTFLLTCFMVRPMTAVTSDPLDFHWPGSRILAVGDLHGDIGNTMLLLYGAGVVDEDGNWIAGDTLLIQTGDVVDRGPDGKRIYDYFASLSAQATEQGGKIIQLLGNHDVMNICGDFRYAHPSETIEFGGALERRRQFMDGGHYGNMLRSFPLSIKANGVIFSHAGIPSDFAVLGLSKLTQQLREELANDCKLHNSRFYNEAMGSSTGDLFVAGSQGPLWTRVYSMGQMTKICEELDKTLGILDSEKMVIGHTVQESGNIEVYCGGRLLLIDTGVSRYVADSPRMLEIRDGTFFEWRLDISKQGTDSEPNVRGSKRQLNIPPLKN,not soluble
8,SLSIDEIKQLIELIDESTLDEFELETKDSKILLKKHKTVVATAVQEAPIAVTPAQTAPVTPAAAPQVEASTAEDVNLEVITSPMVGTFYASASPEDANFVSVGSKVSAQSVVCIVEAMKLFNEITADIDGEIAEILVSSGELVEFGQPLFKVRKK,soluble
9,SLSSKDKDTVKALWGKIADKAEEIGSDALSRMLAVYPQTKTYFSHWKDLSPGSAPVNKHGKTIMGGIVDAVASIDDLNAGLLALSELHAFTLRVDPANFKILSHCILVLLAVKFPKDFTPEVHISYDKFFSALARALAEKYR,soluble
10,SLSSTQSVNSVLAPGNLRKVHHIALNVQDMQASRYFYGTILGLHELTDDEVPATLTELVASGKVANFITPDGTILDLFGEPELSPPDPNPEKTFTRAYHLAFDIDPQLFDRAVTVIGENKIAIAHGPVTRPTGRGVYFYDPDGFMIEIRCDPEAEG,soluble
11,SLTRPNTDYSCGGFLSQPSGDFSSPFYPGNYPNNAKCVWDIEVQNNYRVTVIFRDVQMEGGCNYDYIEVFDGPYRSSPLIARVCDGARGSFTSSSNFMSIRFISDHSITRRGFRAEYYSSPSN,soluble
12,SLTRRADDGPLVLTGANAPMSATTASGQADASFFDPGLLRRFGITRVGDVTGLDIIGIPVWFAARPNSRGLSVSQGKGLFADQARLSAIMEAIEGAVAEETRRHVTAFGSIEEMRNKGVPLIPFETVGRIDPDALDLRKERAWVKGTSIRQQQEVFAPYELIGMDFRAEFPWDRQAFRMSSQGLAAGFEQDHAVLHALLELIENDASFLVDTFETRAITPQPFLLSAGMDSLLDDLIQHLSNIGLPPSFFDLTNALGVPVVMASLPRSLQAEDGPATRSAAGAACRPNTHAAAMAALLEAIQSRLTDISGARDDLSPLRYQRDLSTSGPTASRAQPLRQMPADLNFPESDLSLPPWRQLAEHLFARGIEDIHVFPLETEVSGLHVVRILASGLAPAGGGLQHISPRTLDHLLNLGGT,soluble
13,SLVELQEIFDVSYGSKLDLNKMSSFNPTINFVGRSGKNNGVTASVDLLKNTKPYPAGLLTVALGGSVLSTFLQNKPFYTAQNVAVLNPKTEMTEQQKLFYCAAIFANAYRFSACGREANRTLRQLFVPSLDEIPSWVESVNLNPSAGVTEPKLKESLDLPVVRQSKRLDEIFTIQNGIAATKLKEFEQRQKDTVVYIRPASTQARTLRSYIARDSVDEKHIFPCHTLFTSTNGEGSHTYSYVSTCEFVANSDVAVLTPIQSDMPIEVKLYYAKCITANRYLFSYGRKPKGEKLKSIMLPYFDQQEDFDYICRFIHTLLFSNNL,not soluble
14,SLYENDYVKKTQVWPSGGQMTVKNLSANYIDGGNTVLENISFSLSPGQRVGLLGRTGSGKSTLLSAFLRLLSTQGDIQIDGVSWQTIPLEKWRKAFGVIPQKVFIFSGSIRKNLDPYGKWSDEELLKVTEEVGLKLIIDQFPGQLDFVLLDGGCVLSHGHKQLVCLARSVLSKAKILLLDEPSAHLDPITFQIIRKTLKHAFADCTVILSEARLEAMLECDRFLVIEDNTVRQYDSIQKLVNEKSDFKQAISHSD,soluble
15,SLYQVVLGKVSTLSAGQLPDALIAQAPQGVRRASWLAGRVLLSRALSPLPEMVYGEQGKPAFSAGAPLWFNLSHSGDTIALLLSDEGEVGCDIEVIRPRDNWRSLANAVFSLGEHAEMEAERPEQQLAAFWRIWTRKEAIVKQRGGSAWQIVSVDSTLPSALSVSQCQLDTLSLAVCTPTPFTLTPQTITKAL,not soluble
16,SMAPWGKRLAGVRGVLLDISGVLYDSGAGGGTAIAGSVEAVARLKRSRLKVRFCTNESAASRAELVGQLQRLGFDISEQEVTAPAPAACQILKERGLRPYLLIHDGVRSEFDQIDTSNPNCVVIADAGESFSYQNMNNAFQVLMELEKPVLISLGKGRYYAATSGLMLDVGPYMKALEYACGIKAEVVGKPSPEFFKSALQAIGVEAHQAVMIGDDIVGDVGGAQRCGMRALQVRTGKFRPSDEHHPEVKADGYVDNLAEAVDLLLQHADK,soluble
